Here are results for one substance from patent US20020081293A1.

Test [1] concerns the target human factor D purified from human serum (human) (UniProt P00746). As to the kind of experiment: SPR (BIAcore), factor D amine-coupled to the chip, MAb 166-32 as analyte. A general note: SPR reads the build-up and loss of mass on a sensor chip optically.
The target is the same in test [2]. Kind of test: cell-based or functional assay.
For test [3], the target named is dog factor D (in serum) (dog). Kind of test: cell-based or functional assay. Particulars: scale: times less effective than on human factor D.
For test [4], the target named is human factor D purified from human serum (human) (UniProt P00746). Kind of test: SPR (BIAcore), MAb captured by rabbit anti-mouse IgG, factor D as analyte.

A word on the Kd: it is the concentration at which binding is half-saturated. Usually koff stands for a measure of how fast the partners let go of each other. One may read the kon as the rate constant with which the complex forms.

UniProt P00746, sequence (P00746 26-253): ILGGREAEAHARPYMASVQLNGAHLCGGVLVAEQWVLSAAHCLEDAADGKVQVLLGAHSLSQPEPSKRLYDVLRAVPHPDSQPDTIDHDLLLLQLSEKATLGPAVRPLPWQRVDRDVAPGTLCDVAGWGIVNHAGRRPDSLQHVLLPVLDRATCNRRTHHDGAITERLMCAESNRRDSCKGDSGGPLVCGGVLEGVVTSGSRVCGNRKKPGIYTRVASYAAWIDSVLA

In test [1], monoclonal antibody 166-32 came in with a Kd of 0.16 nM, a koff of 7.6e-05 s⁻¹ and a kon of 460000 M⁻¹ s⁻¹. Besides, in test [2], the inhibition of factor D dependent hemolysis of unsensitized rabbit RBCs (factor D depleted human serum with 0.1 µg/ml supplemented factor D) turned out to be 0.3 µg/mL, the molar ratio for complete inhibition of alternative complement activity in extracorporeal circuit plasma (18 µg/ml MAb) (molar ratio (MAb : factor D)) turned out to be 1.5 and the molar ratio for inhibition of factor D dependent hemolysis (molar ratio (MAb 166-32 to factor D)) turned out to be 0.5. This substance came in with a neutralization of dog factor D in hemolytic assays, against human factor D in test [3] of 10. Also, in test [4], the Kd is less than 0.1 nM, the off-rate constant (koff) is 0.00011 s⁻¹ and the on-rate constant (kon) is greater than 1e+06 M⁻¹ s⁻¹.
